Target: TEAD4 (UniProt Q15561)
Test: co-immunoprecipitation
Details: reference: wild type SP1

SP1 (from UniProt P08047) T681 single mutant
binding against the reference (sites T681): weaker

SP1 (from UniProt P08047) S670 single mutant
binding against the reference (sites S670): weaker

SP1 (from UniProt P08047) T668 single mutant
binding against the reference (sites T668): weaker

Source: publication PMC12089306
